In patent US20230277632A1, “MODIFIED PlySs2 LYSINS AND ANTIBIOTIC COMBINATIONS FOR USE AGAINST GRAM-POSITIVE BACTERIA” (ContraFect Corporation, priority 2020, published 2023):
Where “and” joins values, the source holds several entries; their conditions need not be identical. Equal values may be shown once. Read-outs that look alike come from different tables or passages of the source.

Experiments:
[1] = tested on: S. aureus isolates; assay: In vivo efficacy of vancomycin in combination with pp296, neutropenic murine thigh infection model; conditions: 24 h
Protocol: (§1) Study animals: Specific pathogen-free female ICR mice (average body weight 23 grams) were provided food and water ad libitum and maintained and used in accordance with National Research Council recommendations. Animals were allowed a 48-hour post-delivery acclimation period before every experiment. Mice were rendered transiently neutropenic by injection of cyclophosphamide via intraperitoneal (IP) route at a dose of 150 mg/kg of body weight at four days before bacterial inoculation and 100 mg/kg of body weight at one day before bacterial inoculation.
Neutropenic Thigh Infection Model: Two transfers of the bacterial isolates were performed onto trypticase soy agar plates with 5% sheep blood and placed into an incubator at 37° C. for approximately 24 hours. After an 18-24 hour incubation of the second transfer, a suspension of approximately 10^7 CFU/mL was made for inoculation. Final bacterial inoculum concentrations were confirmed by serial dilution and plating techniques. Thigh infection with the test isolate was produced by intramuscular injection of 0.1 mL of the bacterial inoculum into each thigh of the mice. Antimicrobial therapy was initiated 2 hours after bacterial inoculation, as detailed below. […]
(§2) Untreated control mice (n=3) were sacrificed just prior to antibiotic administration and 24 hours after bacterial inoculation. Animals sacrificed prior to antibiotic initiation served as 0-hour control animals, representing initial bacterial burden. […] Treatment mice (n=3/group) were sacrificed at the end of the 24 hour treatment period. After sacrifice, both thighs for each mouse were homogenized in normal saline. Serial dilutions were plated on Trypticase soy agar with 5% sheep blood and incubated for 18 to 20 hours at 37.0 to determine the CFU. Efficacy was calculated as the change in bacterial density obtained in treated mice after 24 hours compared with the numbers in the 0-hour control animals. Bacterial density represents the average CFU determined from 3 mice, each contributing 2 thighs.

[2] = tested on: S. aureus isolates; assay: In vivo efficacy of daptomycin in combination with pp296, neutropenic murine thigh infection model; conditions: 24 h
Protocol: as §1
Neutropenic Thigh Infection Model: Two transfers of the bacterial isolates were performed onto trypticase soy agar plates with 5% sheep blood and placed into an incubator at 37° C. for approximately 24 hours. After an 18-24 hour incubation of the second transfer, a suspension of approximately 10^7 CFU/mL was made for inoculation. Final bacterial inoculum concentrations were confirmed by serial dilution and plating techniques. Thigh infection with the test isolate was produced by intramuscular injection of 0.1 mL of the bacterial inoculum into each thigh of the mice. Antimicrobial therapy was initiated 2 hours after bacterial inoculation, as detailed below.
as §2
For the 4 S. aureus isolates HPV107, CAIRD426, JMI227, and NRS123, the following sub-therapeutic daptomycin dosage regimen was adopted: 0.76 mg/kg at 0 hrs, 0.4 mg/kg at 4 hrs, 0.24 mg/kg at 10 hrs, and 0.12 mg/kg at 17 hrs.

[3] = tested on: S. aureus; assay: pp296 dose fractionation study, neutropenic murine thigh infection model; assay type: in vivo
Protocol: Each of the pp296 TDDs was fractionated into three regimens, i.e., one-third of the entire dose was administered via IV three times (q8h); one-half of the entire does was administered via IV two times (q12h), or the entire dose was administered via IV once daily over a 24-hour period, for a total of three groups per each TDD.
Untreated control mice (n=3/group) were sacrificed just prior to antibiotic administration, as well as 24 hours later. Animals sacrificed prior to antibiotic administration served as 0-hour control animals, representing initial bacterial burden. The 24-hour control animals received sterile normal saline in the same volume and schedule as the most frequent active drug regimen. […] After the 24-hour treatment period, all animals were euthanized and thighs were cultured quantitatively as described above. The change in bacterial density was calculated for each of the dosing regimen. Comparisons were made between the different regimens of the same total daily dose on bacterial burdens at 24 hours using one-way Analysis of Variance (ANOVA) test followed by Tukey's test where the P value was 0.05.

[4] = tested on: 5 MSSA and 5 MRSA isolates; conditions: cited from earlier work

B1: pp296: modified PlySs2 lysin, SEQ ID NO: 6: L92W, V104S, V128T, Y137S, Y164K, N184D, S198Q (protein)
chain: MTTVNEALNNVRAQVGSGVSVGNGECYALASWYERMISPDATVGLGAGVGWVSGAIGDTISAKNIGSSYNWQANGWTVSTSGPFKAGQIVTWGATPGNPYGHVSIVEAVDGDRLTILEQNYGGKRYPTRNYYSAASSRQQVVHYITPPGTVAQSAPNLAGSRSKRETGTMTVTVDALNVRRAPDTSGEIVAVYKRGEQFDYDTAIIDVNGYAWVSYIGGSGKRNYVATGATKDGKRFGNAWGTFK
With B1 the “Replicate Log10 CFU/thigh data” value ([1]; HPV107, pp296 50 mg/kg alone (VAN 1.5 mg/kg study)) was 8.08 Log10 CFU/thigh and 8.00 Log10 CFU/thigh and 7.05 Log10 CFU/thigh and 7.21 Log10 CFU/thigh and 4.64 Log10 CFU/thigh and 6.57 Log10 CFU/thigh, the “Replicate Log10 CFU/thigh data” value ([1]; HPV107, pp296 50 mg/kg alone, Run #1, 50 mg/kg) was 5.08 Log10 CFU/thigh and 4.96 Log10 CFU/thigh and 5.36 Log10 CFU/thigh and 6.45 Log10 CFU/thigh and 6.14 Log10 CFU/thigh and 6.78 Log10 CFU/thigh and the “Replicate Log10 CFU/thigh data” value ([1]; HPV107, pp296 50 mg/kg alone, Run #2, 50 mg/kg) was 7.35 Log10 CFU/thigh and 8.03 Log10 CFU/thigh (2×) and 6.53 Log10 CFU/thigh and 7.04 Log10 CFU/thigh and 6.30 Log10 CFU/thigh. For the same molecule, the “Replicate Log10 CFU/thigh data” value ([1]; JMI227, pp296 50 mg/kg alone, 50 mg/kg) was 5.01 Log10 CFU/thigh and 6.67 Log10 CFU/thigh and 7.71 Log10 CFU/thigh and 8.05 Log10 CFU/thigh and 4.72 Log10 CFU/thigh and 7.34 Log10 CFU/thigh, the “Replicate Log10 CFU/thigh data” value ([1]; JMI4789, pp296 50 mg/kg alone, 50 mg/kg) was 5.02 Log10 CFU/thigh and 5.19 Log10 CFU/thigh and 7.69 Log10 CFU/thigh and 8.08 Log10 CFU/thigh and 5.11 Log10 CFU/thigh and 6.15 Log10 CFU/thigh and the “Replicate Log10 CFU/thigh data” value ([1]; NRS100, pp296 50 mg/kg alone (VAN 1.5 mg/kg study)) was 4.79 Log10 CFU/thigh and 5.29 Log10 CFU/thigh and 4.72 Log10 CFU/thigh and 4.90 Log10 CFU/thigh (2×) and 5.73 Log10 CFU/thigh. For the same molecule, the “Replicate Log10 CFU/thigh data” value ([1]; NRS100, pp296 50 mg/kg alone, Run #1, 50 mg/kg) was 4.75 Log10 CFU/thigh and 4.81 Log10 CFU/thigh and 4.78 Log10 CFU/thigh and 4.83 Log10 CFU/thigh and 4.48 Log10 CFU/thigh and 4.70 Log10 CFU/thigh, the “Replicate Log10 CFU/thigh data” value ([1]; NRS100, pp296 50 mg/kg alone, Run #2, 50 mg/kg) was 4.62 Log10 CFU/thigh and 4.73 Log10 CFU/thigh and 4.66 Log10 CFU/thigh and 4.41 Log10 CFU/thigh and 5.94 Log10 CFU/thigh and 6.34 Log10 CFU/thigh and the “Replicate Log10 CFU/thigh data” value ([1]; NRS123, pp296 50 mg/kg alone, 50 mg/kg) was 6.53 Log10 CFU/thigh and 8.01 Log10 CFU/thigh and 8.08 Log10 CFU/thigh and 7.48 Log10 CFU/thigh and 8.41 Log10 CFU/thigh and 8.38 Log10 CFU/thigh. The “Replicate Log10 CFU/thigh data” value ([1]; NRS217, pp296 50 mg/kg alone (VAN 1.5 mg/kg study)) was 7.46 Log10 CFU/thigh and 7.45 Log10 CFU/thigh and 4.60 Log10 CFU/thigh and 4.79 Log10 CFU/thigh and 7.49 Log10 CFU/thigh and 6.72 Log10 CFU/thigh, the “Replicate Log10 CFU/thigh data” value ([1]; NRS217, pp296 50 mg/kg alone, Run #1, 50 mg/kg) was 4.75 Log10 CFU/thigh and 6.79 Log10 CFU/thigh and 5.06 Log10 CFU/thigh and 4.93 Log10 CFU/thigh and 5.72 Log10 CFU/thigh and 5.76 Log10 CFU/thigh and the “Replicate Log10 CFU/thigh data” value ([1]; NRS217, pp296 50 mg/kg alone, Run #2, 50 mg/kg) was 5.35 Log10 CFU/thigh and 5.98 Log10 CFU/thigh and 6.08 Log10 CFU/thigh and 5.42 Log10 CFU/thigh and 4.32 Log10 CFU/thigh and 6.26 Log10 CFU/thigh. For the same molecule, the “Replicate Log10 CFU/thigh data” value ([1]; isolate CAIRD426, pp296 50 mg/kg alone, VAN 5 mg/kg study) was 8.95 Log10 CFU/thigh and 7.96 Log10 CFU/thigh and 7.74 Log10 CFU/thigh and 8.34 Log10 CFU/thigh, the “mean bacterial density vs starting inoculum” value ([1]; pp296 0.5 mg/kg IV + vancomycin 1.5 mg/kg SC, 4 isolates) was 0.92±1.24 log10 CFU/thigh and the “mean bacterial reduction vs starting inoculum” value (“mean bacterial reduction” for short) ([1]; pp296 0.5 mg/kg IV + vancomycin 3 mg/kg q12h SC, 8 isolates) was −0.26±1.10 log10 CFU/thigh. For the same molecule, the “mean bacterial reduction” value ([1]; pp296 0.5 mg/kg IV + vancomycin 5 mg/kg SC, 4 isolates) was −0.59±0.79 log10 CFU/thigh, the “mean bacterial density vs starting inoculum” value ([1]; pp296 50 mg/kg IV + vancomycin 1.5 mg/kg SC, 4 isolates) was −0.61±0.82 log10 CFU/thigh and the “mean bacterial reduction” value ([1]; pp296 50 mg/kg IV + vancomycin 3 mg/kg q12h SC, 8 isolates) was −1.01±0.41 log10 CFU/thigh. The “mean bacterial reduction” value ([1]; pp296 50 mg/kg IV + vancomycin 5 mg/kg SC, 4 isolates) was −0.85±0.54 log10 CFU/thigh, the “average growth vs starting inoculum” value ([1]; pp296 50 mg/kg alone, 4 isolates (VAN 1.5 mg/kg study)) was 0.75±1.24 log10 CFU/thigh and the “average growth vs starting inoculum” value ([1]; pp296 50 mg/kg alone, 4 isolates (VAN 5 mg/kg study)) was 1.44±1.43 log10 CFU/thigh. The “average growth vs starting inoculum” value ([1]; pp296 50 mg/kg q24h IV alone, 8 isolates (VAN 3 mg/kg study)) was 0.37±1.27 log10 CFU/thigh, the “mean bacterial density vs starting inoculum” value ([2]; pp296 0.5 mg/kg IV + sub-therapeutic daptomycin) was 0.80±1.19 log10 CFU/thigh and the “mean bacterial density vs starting inoculum” value ([2]; pp296 50 mg/kg IV + sub-therapeutic daptomycin) was −0.72±0.59 log10 CFU/thigh. For the same molecule, the “average growth vs starting inoculum” value ([2]; pp296 50 mg/kg alone, 8 isolates (daptomycin study)) was 1.36±1.35 log10 CFU/thigh, the “efficacy of dose-fractionation (q12h v. q8h) compared with q24h” value ([3]; pp296 5 or 50 mg/kg/day IV with vancomycin or daptomycin) was “does not appear to provide enhanced efficacy” and the “driver of efficacy (PK/PD index)” value ([3]; pp296 with vancomycin or daptomycin) was “AUC related”. The FIC index ([4]; with daptomycin) was roughly 0.5 and the FIC index ([4]; with vancomycin) was roughly 0.5.
